From PMC3174691 (Journal of molecular biology, 2008)

Molecular target: T1, E. coli RecB (E. coli, UniProt P08394 1-1180)
T1 sequence (looked up): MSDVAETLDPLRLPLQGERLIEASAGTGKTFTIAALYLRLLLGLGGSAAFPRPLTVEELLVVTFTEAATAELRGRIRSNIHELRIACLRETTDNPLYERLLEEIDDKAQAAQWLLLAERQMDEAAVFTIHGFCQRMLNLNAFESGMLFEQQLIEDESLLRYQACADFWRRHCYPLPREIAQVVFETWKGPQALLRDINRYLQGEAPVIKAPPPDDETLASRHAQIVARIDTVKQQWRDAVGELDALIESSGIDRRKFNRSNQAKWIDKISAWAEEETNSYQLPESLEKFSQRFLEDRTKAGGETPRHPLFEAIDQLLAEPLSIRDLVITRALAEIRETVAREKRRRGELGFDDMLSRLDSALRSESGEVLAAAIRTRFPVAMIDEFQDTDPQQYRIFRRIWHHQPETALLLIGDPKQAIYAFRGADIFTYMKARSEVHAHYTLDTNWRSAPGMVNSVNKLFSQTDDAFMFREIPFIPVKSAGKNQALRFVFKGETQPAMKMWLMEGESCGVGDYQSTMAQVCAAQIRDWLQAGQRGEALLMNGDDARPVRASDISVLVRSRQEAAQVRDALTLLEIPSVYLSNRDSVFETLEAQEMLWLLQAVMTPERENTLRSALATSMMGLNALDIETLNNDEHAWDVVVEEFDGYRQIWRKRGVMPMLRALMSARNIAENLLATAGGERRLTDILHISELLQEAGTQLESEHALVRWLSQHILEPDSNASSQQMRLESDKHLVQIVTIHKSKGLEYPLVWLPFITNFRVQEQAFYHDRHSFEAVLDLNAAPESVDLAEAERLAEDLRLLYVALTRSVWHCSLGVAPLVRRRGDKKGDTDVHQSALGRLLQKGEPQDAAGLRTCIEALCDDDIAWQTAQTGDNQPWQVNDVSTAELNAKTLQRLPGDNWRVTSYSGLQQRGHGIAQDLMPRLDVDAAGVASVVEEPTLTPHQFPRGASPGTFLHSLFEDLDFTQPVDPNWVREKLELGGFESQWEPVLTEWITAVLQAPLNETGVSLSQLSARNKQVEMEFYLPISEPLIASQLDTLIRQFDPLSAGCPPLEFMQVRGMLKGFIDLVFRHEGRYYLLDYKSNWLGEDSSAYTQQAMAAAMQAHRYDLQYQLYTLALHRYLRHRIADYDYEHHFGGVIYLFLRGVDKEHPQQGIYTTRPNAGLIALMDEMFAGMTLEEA
Test: reconstitution of the complex by mixing

binding result: binds
B1: E. coli RecC (natural protein, UniProt P07648 1-1122, looked up)
chain: MLRVYHSNRLDVLEALMEFIVERERLDDPFEPEMILVQSTGMAQWLQMTLSQKFGIAANIDFPLPASFIWDMFVRVLPEIPKESAFNKQSMSWKLMTLLPQLLEREDFTLLRHYLTDDSDKRKLFQLSSKAADLFDQYLVYRPDWLAQWETGHLVEGLGEAQAWQAPLWKALVEYTHQLGQPRWHRANLYQRFIETLESATTCPPGLPSRVFICGISALPPVYLQALQALGKHIEIHLLFTNPCRYYWGDIKDPAYLAKLLTRQRRHSFEDRELPLFRDSENAGQLFNSDGEQDVGNPLLASWGKLGRDYIYLLSDLESSQELDAFVDVTPDNLLHNIQSDILELENRAVAGVNIEEFSRSDNKRPLDPLDSSITFHVCHSPQREVEVLHDRLLAMLEEDPTLTPRDIIVMVADIDSYSPFIQAVFGSAPADRYLPYAISDRRARQSHPVLEAFISLLSLPDSRFVSEDVLALLDVPVLAARFDITEEGLRYLRQWVNESGIRWGIDDDNVRELELPATGQHTWRFGLTRMLLGYAMESAQGEWQSVLPYDESSGLIAELVGHLASLLMQLNIWRRGLAQERPLEEWLPVCRDMLNAFFLPDAETEAAMTLIEQQWQAIIAEGLGAQYGDAVPLSLLRDELAQRLDQERISQRFLAGPVNICTLMPMRSIPFKVVCLLGMNDGVYPRQLAPLGFDLMSQKPKRGDRSRRDDDRYLFLEALISAQQKLYISYIGRSIQDNSERFPSVLVQELIDYIGQSHYLPGDEALNCDESEARVKAHLTCLHTRMPFDPQNYQPGERQSYAREWLPAASQAGKAHSEFVQPLPFTLPETVPLETLQRFWAHPVRAFFQMRLQVNFRTEDSEIPDTEPFILEGLSRYQINQQLLNALVEQDDAERLFRRFRAAGDLPYGAFGEIFWETQCQEMQQLADRVIACRQPGQSMEIDLACNGVQITGWLPQVQPDGLLRWRPSLLSVAQGMQLWLEHLVYCASGGNGESRLFLRKDGEWRFPPLAAEQALHYLSQLIEGYREGMSAPLLVLPESGGAWLKTCYDAQNDAMLDDDSTLQKARTKFLQAYEGNMMVRGEGDDIWYQRLWRQLTPETMEAIVEQSQRFLLPLFRFNQS
